The target of test [1] is T1, bovine serum albumin (bovine, UniProt P02769 25-607).
T1 construct: Control antigen; also called BSA
In words: ELISA, antigen coated directly on the plate.

Test [2] deals with MD145 virus-like particle (GII.4, capsid protein VP1) (Norovirus GII.4 strain MD145-12).
Test [3] has as its target T2, Norwalk virus (NV, GI.1) recombinant virus-like particles (capsid protein VP1) (Norwalk virus, UniProt Q83884 1-530).
T2 sequence: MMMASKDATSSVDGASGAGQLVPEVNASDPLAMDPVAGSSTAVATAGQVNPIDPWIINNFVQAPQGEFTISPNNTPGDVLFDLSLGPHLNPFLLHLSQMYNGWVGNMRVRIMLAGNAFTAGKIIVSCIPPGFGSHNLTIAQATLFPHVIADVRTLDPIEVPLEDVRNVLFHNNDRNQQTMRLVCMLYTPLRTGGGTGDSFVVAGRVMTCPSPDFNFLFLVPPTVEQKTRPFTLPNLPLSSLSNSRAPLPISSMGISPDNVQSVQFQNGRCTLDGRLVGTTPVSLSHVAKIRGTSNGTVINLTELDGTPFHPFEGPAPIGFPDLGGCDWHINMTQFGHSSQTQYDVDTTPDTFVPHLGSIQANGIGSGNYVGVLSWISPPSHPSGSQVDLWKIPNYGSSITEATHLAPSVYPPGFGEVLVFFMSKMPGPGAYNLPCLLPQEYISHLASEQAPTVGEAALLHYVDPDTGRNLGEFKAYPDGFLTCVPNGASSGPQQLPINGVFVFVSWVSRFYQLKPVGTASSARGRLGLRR

The target in test [4] is T3, NV VP1 G365N/V370I/I376V triple mutant (Norwalk virus, UniProt Q83884 1-530).
T3 construct: whole, on cells; Expressed in transfected Vero cells, methanol-fixed, immunofluorescence
T3 sequence (looked up): T2 sequence with G365N, V370I, I376V
Put plainly: immunofluorescence on transfected Vero cells.

A further test deals with T4, NV VP1 G365N mutant (Norwalk virus, UniProt Q83884 1-530).
T4 construct: whole, on cells; Expressed in transfected Vero cells, methanol-fixed, immunofluorescence
T4 sequence (looked up): T2 sequence with G365N
In words: immunofluorescence on transfected Vero cells.

In test [5] the target is T5, NV VP1 G365N/V370I double mutant (Norwalk virus, UniProt Q83884 1-530).
T5 construct: whole, on cells; Expressed in transfected Vero cells, methanol-fixed, immunofluorescence
T5 sequence (looked up): T2 sequence with G365N, V370I
In words: immunofluorescence on transfected Vero cells.

Test [6] concerns the target T6, NV VP1 G365N/I376V double mutant (Norwalk virus, UniProt Q83884 1-530).
T6 construct: whole, on cells; Expressed in transfected Vero cells, methanol-fixed, immunofluorescence
T6 sequence (looked up): T2 sequence with G365N, I376V
In words: immunofluorescence on transfected Vero cells.

Test [7] deals with T1, bovine serum albumin. In words: ELISA, antigen on the solid phase, soluble Fab.
Test [8] addresses T2, Norwalk virus (NV, GI.1) recombinant …. Put plainly: SPR (Biacore 1000), NV rVLP amine-coupled to CM5 chip, Fab as analyte 1-10 nM, Langmuir model.

Broadly, the IC50 is the concentration at which inhibition is half-maximal. In general, Kd refers to the free concentration of one partner at which half of the binding sites on the other are occupied at equilibrium, for simple one-to-one binding. One may read the koff as the first-order rate constant of dissociation. What is called kon is the rate constant with which the complex forms.

Where a chain is given by its changes, count along the chain named.

T1 sequence (P02769 25-607 limits assumed): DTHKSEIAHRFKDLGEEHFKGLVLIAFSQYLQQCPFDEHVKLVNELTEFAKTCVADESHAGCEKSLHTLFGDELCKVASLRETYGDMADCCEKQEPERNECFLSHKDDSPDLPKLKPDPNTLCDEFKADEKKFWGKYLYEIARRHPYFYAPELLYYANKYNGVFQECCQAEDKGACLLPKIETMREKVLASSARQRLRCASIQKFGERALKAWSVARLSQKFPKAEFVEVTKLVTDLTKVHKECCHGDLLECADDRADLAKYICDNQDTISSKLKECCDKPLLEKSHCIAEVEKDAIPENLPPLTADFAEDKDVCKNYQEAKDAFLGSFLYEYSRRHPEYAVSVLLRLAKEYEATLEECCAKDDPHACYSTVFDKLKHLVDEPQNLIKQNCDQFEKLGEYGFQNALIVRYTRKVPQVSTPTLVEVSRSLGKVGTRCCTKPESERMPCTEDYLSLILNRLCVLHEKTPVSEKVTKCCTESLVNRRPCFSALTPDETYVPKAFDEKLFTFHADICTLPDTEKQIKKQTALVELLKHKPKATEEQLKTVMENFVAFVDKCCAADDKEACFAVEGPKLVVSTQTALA

B1: anti-NV Fab D8 (Fab, V domains shown)
VH: EVQLEESGGGLVQPGGSLRVSCAASGFPFNGYWIHWVRQAPGKGLEWVSRVNSDGRITNFADSVMGRFTMSRDNAKSTVYLQMNSLRAEDTAMYYCSRGGYTGYPEGHWGQGTLVTVS
VL: ELQMTQSPSSLSAAVGDSVTITCRASQGISIHLAWYQQKPGKVPNLLIYAASTLQSGVPSRFSGSGSGTDFTLTINSLQPEVFATYYCQKYDSAPFTFGPGTKVDIKR
With B1, the binding result with bovine serum albumin [1] is “no binding”.

B2: anti-NoV GII.4 mAb D4 (IgG) (antibody, V domains shown)
VH: EVQLVESGPGLVKPSETLSLTCAVSGASIRRANWWGWIRQAPGKGLEWLGSIFINAGTIYNPSLTGRVTVSADTSKNLFSLKLGSVTAADTAVYYCVKSYGDGDDNYNSFYYYMDVWGKGTSVIVSS
VL: DVVMTQSPSSLSASVGDRVTITCRASQDIRNNLAWYQHKPGKAPKLLIYYASKLQSGVPLRFSGSGSGTDYTLFISSLQPEDFATYYCQQYKTDTPYSFGQGTKVDIKR
In turn, B2 registered an IC50 (read off the curve) in test [2] of 1 µg/mL.

B3: anti-NV IgG G4 (antibody, V domains shown)
VH: EVQLEESGGGLVKPGGSLRLSCAASGFTFSHYVMYWVRQAPEKGLEWVSTISGSGSSTWYPDSVKGRFTVSRDNSKNTLYLQMNSLRGDDTAVYYCARLQGQLVYWGLGTLVTVS
VL: ELQMTQSPSTLSASVGDRVTITCRASQGISSWLAWYQQKPGRAPKLLIYKSSTLESGVPSRFSGSGSGTEFTLTISSLQPDDFATYFCQQYSSNPPLTFGGGTKVEIKR
For the molecule B3, in test [3], the half-maximal inhibitory concentration (IC50) is approximately 2.8 nM.

B4: anti-NV Fab G4 (Fab, V domains shown)
VH: B3 VH
VL: B3 VL
notes: also called Norwalk Fab G4
Regarding B4, the binding result is on record as “no binding (tested: 5 ug/mL)” in [4]; “no binding (tested: 5 ug/mL)” with NV VP1 G365N mutant; “no binding (tested: 5 ug/mL)” in test [5]; “no binding (tested: 5 ug/mL)” in [6]; “no binding” with bovine serum albumin [7]. Moreover, the equilibrium dissociation constant (Kd) in [8] came to 0.974 nM. Moreover, the koff in test [8] is 0.00142 s⁻¹. Moreover, the kon in test [8] was 1.46e+06 M⁻¹ s⁻¹.

B5: anti-NoV GII.4 mAb G3 (IgG) (antibody, V domains shown)
VH: EVQLEQSGGGLVKPGGSLRLSCAGSGFSFSAHTINWVRQAPGKGLEWVGFIRSQAQGGTREYAASVKGRIILSRDDSENSAYLQMNSLNTGDTAVYYCARDSSRGYYSYYLDVWGKGTTVTVSS
VL: ELTQSPSSLSASVGDRVTITCRASQGISNRLNWYQQKPGKAPKLLIYDASSLESGVPSRFSGSGSGTDFTLTISSQQPEDFATYYCQQFNSYPLTFGGGTKVEIKR
With B5, in test [2], the IC50 (read off the curve) was 1 µg/mL.

Values taken from patent US20160009788A1 (UNITED STATES OF AMERICA AS REPRESENTED BY THE SECRETARY …, published 2016).
